The DeepSol protein solubility set

Assay: soluble on expression in E. coli; label from the status in PepcDB or PDB records

| Sequence | soluble on expression in E. coli |
| --- | --- |
| DGPGDGFTILSSKSLVLGQKLSLTQSDISHIGSMRVEGIVHPTTAEIDLKEDIGKALEKAGGKEFLETVKELRKSQGPLEVAEAAVSQSSGLAAKFVIHCHIPQWGSDKCEEQLEETIKNCLSAAEDKKLKSVAFPPFPSGRNCFPKQTAAQVTLKAISAHFDDSSASSLKNVYFLLFDSESIGIYVQEMAKL | soluble |
| MKTENAKTNQTLVENSLNTQLSNWFLLYSKLHRFHWYVKGPHFFTLHEKFEELYDHAAETVDTIAERLLAIGGQPVATVKEYTEHASITDGGNETSASEMVQALVNDYKQISSESKFVIGLAEENQDNATADLFVGLIEEVEKQVWMLSSYLG | soluble |
| MYKLDHLNHNTLDESSLELHETPKGYTNVALFGLDSRDGELSGGVRSDSIMIVSINNKTGDVKIISVYRDTLLKQQDGSYEKANAAYSFGGPQEAVAMLNRNLDLDITKYASVNFNSLADIIDILGGVEVELTSEEIFWLNGYTAETSQVVGRQTHTLDENSPGVHNLDGIQAVSYTRIRYTAGDDFKRAERQRIILQKMIQKLKTAGPVKWNKILDQVLPEISTNMTTPDIMKLGLNIFRYKIGETKGFPFDITTSENVIGLEGSYAVAIGHADNVRQLHEQLFGETGYQPSDEVQQISQDVAYLTGVLEHHHHHH | soluble |
| MAKKLSSPKEYKEFIDKFDVFLFDCDGVLWSGSKPIPGVTDTMKLLRSLGKQIIFVSNNSTKSRETYMNKINEHGIAAKLEEIYPSAYSSATYVKKVLKLPADKKVFVLGEAGIEDELDRVGVAHIGGTDPSLRRALASEDVEKIGPDPSVGAVLCGMDMHVTYLKYCMAFQYLQDPNCAFLLTNQDSTFPTNGKFLPGSGAISYPLIFSTGRQPKILGKPYDEMMEAIIANVNFDRKKACFVGDRLNTDIQFAKNSNLGGSLLVLTGVSKEEEILEKDAPVVPDYYVESLAKLAETA | soluble |
| MPGPILKKCFNCRVALPEDAINTAQCQKCQKNEAKYGKPGTCQYCKLNAAFHDQKCVWCSHAERKFGNPFPCANCKLSCAFPRRESDKVEGAALLCRLCILQARHTNQTVVAGIPVPPEKPERSGEGSSTEQRDRDHRQHRPTSHHHRDHKDHHRRDDKHHHRDSNHRHAHKRRHQEEPNNNSNNGTSSSGGAPPLVPNNENGNGFPPFGDRDPGESMVKQQKMEDEIRRLKTLLAEKDQLIFDKDKQISNLKADQYNLDKKHRERVQQLIKEKEDSIRAIEQMRNSKSSKRN | not soluble |
| MGHHHHHHSHIVERVIEATLPTKFYGTFRAVGYKTPLGEIVALVKGRVDEGDVLVRIHSECLTGDVFHSLRCDCGDQLENALKMIDREGKGVAIYMRGHEGRGIGLINKLMAYKLQEEGKDTVDANIELGFPPDMRSYGIAAQILMDLKVKSIRLLTNNPLKIEELKKYGFKIVREPIE | soluble |
| MSLSEKPCERVVLDTSVFTNPSVAAVFGDNATSALAQFVILARQVSPRMEFYMPPSVLGELHHFTDAEHLPGDLELVIKLRAPRRHDISVPGMFLYELIEDIRQRIDRGLRVAEKAVREVQPTSVDRTIRWLRDRYRDALRTGLLDSSEDLDVILLAVELDGAVASADRGLLQWAEKGGLRLIPPQRLRSILEHLIENGTAGEEGHHHHHH | soluble |
| RIETDERDSTNRASFKCPVCSSTFTDLEANQLFDPMTGTFRCTFCHTEVEEDESAMPKKDAR | soluble |
| MENKKNDNQQPTVASAHHPFYLGEMKKGMFACWTVTTQCCDDTKVTILDDTGKVYATYTKAFTQSHNLTLLGQGNAIIEGNELRVYVDSSMSSQLIASTNTHLINDLNARKVGAVTDICIEDQTDNDFNDVYINVVAWNKKG | not soluble |
| MLMRQVLEEACLKSGFEVNSHRLQTQSRKPIDSSLPFRLTGLANNATLEMTQKEAVSENTIIELAIQTASGARHQKKVGVNQMLLDALKSFTSEFKEDLATTIDGSVPCIVYMNKRYTGAELAVNSLSSLGVASGKCLIRHMRVKLSDQELATMQAKLQEENERKKALDVNFVKLKAENAERDRLERLRQEAFDKDKESREKREQEQLRALIPEPASNIQDSTVMDTTESQQRDVLQEVPEQNPNSWSFDGPAFSRQVPQNTMRMEELNRLLERVDHSLATPAVESRMDAMVNALADGGRISLAEVRTRADVAMEQEQEEDPVEVFANPCDRQAVIYKKRARVQTTDEPMETEEFFEVGIEDVRNMQKDLRKAVRDQTQASFISKEYLAKKNRQLKLEAYKHTVIRISIGEHILQVYFNTAEQSSNLDLFLNNVLTRSGWKLMFTNLKVVTNELKNFVDIELAPKSTLIASFGGQTVNAADVVHNVIEVTPEKADAMSADWLSLNKTFMPFNSTVNDDRKQKRPQFQSSSSSSHSGPPAKSAMPKWLQTGKK | not soluble |
| MSLNLSFAAIDFETATGYMESACAVGIVTVTDGEITDEYYSLIQPPENEYWRANMLVHGITPGMTESLPGFHAIYPEVKKRLQGNVVVAHNEQFDRNVLKNTMRMYGLDYDELSLPERWECTCRIYRSLGYKPVNLSACCEREGIELKHHEALSDARGCAKLYLNFLEKYRPLSTEGHHHHHH | soluble |
| MGSDKIHHHHHHMSDSTTPETIIVIGASSLMAQAFIAKTFTQQAYTDQTVIQQASSQQSKRHDTSPLQIITVSRQNKLILHDLTDNISHHHFSCDYQQASIEQCVTNIAAIAGKVTRIVMCNGILHSKNPQSADSILGPHSANDSTLMPEKRIEDIDALSLEQLFYANSIVPMLWLSALTSLLSLPRHKVAGEQKCVISILSARVGSISDNRLGGWYGYRASKAALNMLIKTTAVEYARRLKRVKLIAFHPGTTDTPLSKPFQANVPAGKLFTPEFVASQLYNIMADIEPNGEASYLDWQGKEISW | not soluble |
| MLFEDEVGETPGGESYATVVNSRLSELLKRDRIVALLTNPDEVELIEQIECINYKPSISGTGGFVFFVHGDRKTYKILDTDRLALWEDTAATKDVRMSEETRLRFDQNNHLQVSKAKLALDHNGFTLYENTATLARCRRHNKKVVYVLRNGHQYGHGLIMYQYVKPGAHPDPLHQTVQLMTDAWFDILPPDIRMVVYYLLKYNHADETARIVHREHSVYLSRMKAGRPPPPSTSACTS | not soluble |
| MSLSDPHHPHIQTHNAWVEFPIFDAKSRSLKKAVLGKAGGTIGRNNSNVVVIEALRDITMELNLGDRVGLVGHNGAGKSTLLRLLSGIYEPTRGWAKVTGRVAPVFDLGIGMDPEISGYENIIIRGLFLGQTRKQMQAKVDEIAEFTELGEYLSMPLRTYSTGMRVRLAMGVVTSIDPEILLLDEGIGAVDADFLRKAQSRLQNLVERSGILVFASHSNEFLARLCKTAIWIDHGVIRLAGGIEEVVRAYEGEDAARHVREVLAETEGHHHHHH | soluble |
| MSLGEAEARVVLNMNTGWAFHRGEVESGGQPGLDDSGWIAAIIPHIMQLEKKHCGGDIIYDGVGWYRRTFRVPSQYKDKQIKISFEGVMNACEVYLNGQKISAHRGGYVGFVTDITTRINWDRDNLLAVRVSAEYDPLTPPGKPQAGMDFYYYSGIYRDVEMVISDPLHITHALEEEEVAGGGIFVTYPVVGKEKAVTHVKAHVRNEGKRKRKAQLRTQLIDKSGKIVACQLTPFRLSAGEAIHLEQNLEIVHPSLWHPYDPNLYTLQNEIVENGKVVDCHTESIGIRTIAYTRDGGFYINGESLYLRGANRHQAFAHIGDAAANSMQERDVIDLKRGGCNAVRAAHYPQDPAFLAACDKYGLLVVECIPGWQYFKNDSTFISRLYEVGKQMIRRDRNHPSVILWETALNESRYPAEIARNLYAIAHIEYPGDQMYTAGDYFGHADRVDCFDVFYKQVSRFPKDGDVMSNYPEDQIAVKPLFCREWGDGVGEKPRVSLMENEEEQLKQCRGRFLQLNGHGYFDWCMLDANPRMGGHFLWSYNDYARGAEQETMFCGIVDINRYPKFSYYMMQSMRDKEISQPGLYDGPMVFIASQNTASRYVSSVNEITVFSNCDEVRLFRNHHLIGKQMRKERTPLYRSIVEKGGSPCYVFNAGTYEAGELVAEGIVDGKVVATHSVRTPEQPRQVKIWLKEENIQPVADGSDMIPVYFKVCDSNGTLVNTSDVRIHISVSGEGSLIGDGIERIGINPQLVEGGVGYALIRTTCRPGKIHISVTADGLRGDTREIVTRRYDGEGHHHHHH | not soluble |
| MKFIIKLFPEITIKSQSVRLRFIKILTGNIRNVLKHYDETLAVVRHWDNIEVRAKDENQRLTIRDALTRIPGIHHILEVEDVPFTDMHDIFEKALVQYRDQLDGKTFCVRVKRRGKHDFSSIDVERYVGGGLNQHIESARVKLTNPDVTVHLEVEDDRLLLIKGRYEGIGGFPIGTQEDVLSLISGGFDSGVSSYMLMRRGCRVHYCFFNLGGAAHEIGVRQVAHYLWNRFGSSHRVRFVAINFEPVVGEILEKIDDGQMGVILKRMMVRAASKVAERYGVQALVTGEALGQVSSQTLTNLRLIDNVSDTLILRPLISYDKEHIINLARQIGTEDFARTMPEYCGVISKSPTVKAVKSKIEAEEEKFDFSILDKVVEEANNVDIREIAQQTGQEVVEVETVNDFGPNDVILDIRSVDEQEDKPLKVEGIDVVSLPFYKLSTKFGDLDQNRTWLLWCERGVMSRLQALYLREQGFKNVKVYRP | not soluble |
| MTAKPLPIFLLPISAIRKAMEQMSFAELLIISILSKNAKDFVTLLTKPLKNMIISVDCWLSLKLVTASSELYLLYFKRKQRVRIEKSPYDKRYKKLYLPGFTEKQWIGHIVRVFSHNNGIVLSLKPLFSFRRGKIKETVELFKGLNVRKLVNHDSRIENRQLLKLFPTPNYLRLSNDYICESILVQNFETLELLEKKLSLNDILTTNCTNLEIHYQSLSDRNLNLFMKHWIRGSNPNLQSICVNFSREMRSFGAEVFKGIDHRKTIPQENFYWGKH | not soluble |
| QQFHWVNDGYADFDGFLAALSSRKRKAIRKERAQAQGFGGQIRELTGGDLRPEHWDAFWRFYQDTGARKWGSPYLTRAFFDIAHQTMADDMVLVLAERDGIPVAGALNFIGREALFGRYWGCVEHHPCLHFELCYYRAIDWAIAHGLARVEAGAQGEHKLARG | not soluble |
| MGSDKIHHHHHHVKSDYYKEPIVINTDALIPPSPSDDMWKNRKRAYYMYDAPDVPTCSIVVTGYNRLHKTKYCVECILKYTRDVDYELILVDNGSDDGTLDFFQSVPYENKTIIRMTQNKGATLPFKYYINILKGKYIVNISNDIYVTQNWLSNLLKCYQSDPKIGFVEPVSSNVSNLQEVDLGFSDFDDMQKKAAAFNQSDPAKWEERLRLISVINVFLRDVLDNVGINDAAYFYDFIEDDLCARIRRMGYKLVLCRDTWICHDHDFRNLEDKDPVAFQASLEHGRAVYRKKYYGIDPWDDINNFELTLLAQLDTAKIPRAVKALTVDVRCGAPALEIRNRLKRRGITDVASYAFTTAAKYYLDLQTVCSEVQCDRIDFIQQHYANGTFDLVVLGEPVNTYPLPVRLLQNLYDFLKPGGLLLFKVRNTDDYRAFLRSIGMEVASDPDLPASTPLNEVLACLKLFGAVDCTVAGELESISVADQEFLMNKLKAANPNADQATLNRLCIKDYCIKVIRK | not soluble |
| SPNSQYLKTRILDIYTPEQRAGIEKSEDWRQFSRRMDTHFPKLMNELDSVYGNNEALLPMLEMLLAQAWQSYSQRNSSLKDIDIARENNPDWILSNKQVGGVCYVDLFAGDLKGLKDKIPYFQELGLTYLYLMPLFKCPEGKSDGGYAVSSYRDVNPALGTIGDLREVIAALHEAGISAVVDFIFNHTSNEHEWAQRCAAGDPLFDNFYYIFPDRRMPDQYDRTLREIFPDQHPGGFSQLEDGRWVWTTFNSFQWDLNYSNPWVFRAMAGEMLFLANLGVDILRMDAVAFIWKQMGTSCENLPQAHALIRAFNAVMRIAAPAVFFKSQAIVHPDQVVQYIGQDECQIGYNPLQMALLWNTLATREVNLLHQALTYRHNLPEHTAWVNYVRSHDDIGWTFADEDAAYLGISGYDHRQFLNRFFVNRFDGSFARGVPFQYNPSTGDCRVSGTAAALVGLAQDDPHAVDRIKLLYSIALSTGGLPLIYLGDEVGTLNDDDWSQDSNKSDDSRWAHRPRYNEALYAQRNDPSTAAGQIYQGLRHMIAVRQSNPRFDGGRLVTFNTNNKHIIGYIRNNALLAFGNFSEYPQTVTAHTLQAMPFKAHDLIGGKTVSLNQDLTLQPYQVMWLEIA | soluble |
